This note sets out measurements from patent EP0769025B1.

Assay [1] deals with monoclonal antibody AF-28. Put plainly: competition ELISA, competitor against plate-coated 32-mer for AF-28.
Assay [2] deals with monoclonal antibody AF-28. Put plainly: competition ELISA, 32-mer as both coating (25 pmoles/ml, Figure 6b) and standard antigen.

As for FGVGGEEDI [… 9-mer], in assay [1], the times less competitive than the 32-mer turned out to be 230 times.
In turn, FFGVGGEEDITVQTVTWPDMELPLPRNITEGE [… (FFGVG...EGE 32-mer) synthetic peptide] yielded a half-maximal inhibitory concentration (IC50) in assay [2] of 16 nM.
